Data reported in a protein production outcome set (Wang et al. 2014).

Assay: label from the status in PepcDB records

Sequence | protein production
MCVSSSIQTAILDWQCVDGIDIPVSRQFGDVYFSKDNGLLETRHVFLNGNNLTERLADLKPYQYFCVGETGFGTGLNILAVWQLWQQVRPDNHSHLHVISVEKFPLSKSDLERALRAWPELIILAEQLIEQYPFPIAGCHRLNFPDERFSLDLWLGDAHDVFPSIVKTHSVDAWFLDGFAPSCNPELWETQVLNQIVRLSDYGTTFASFSVAGILKRGLKAHGIHISRPRGFGHKREMLKAIWPFPDHESTTTVKGNQPSTQQHFAVIGAGIAGLHCAWSLAQRGHRVTLVDQSQPLSGASGNPLALLNPKLCPITQCHDHLMVLCWQYARRFYQNFEAFRLIQVNQLALKASDSLLNLAEQYPKDVLDAHSAQQSPLETQYDYLTLHYAGVISPQLFCNQVLQHPLIEFKQFKINQIIEIDGTVQLLSSEQAILESNAAIVCCARESGKLFEQYPTLKPIRGQVSWFEQHTFPFAPDQAFSYGGYCMQLHPQQLILGASFHPQRDDDEVLLEDHVHNFNLIHSVFPAYAQTLPPVEEWHGRASVRAQSPDYFPLVGQLQDHSKLFTLAGLGSKGYLFAPLNSEILVAHILGEACPVSANLLQKLNPQRFLKKVKIKKPYYSS | failed
MTNSNNRQSEYPVDPLFLDRWSPRAFDGSPMPKEHLLTILDAAHWAPSASNHQPWRFVYAHKDSEDWPLFVELLMEGNQKWAKNASVLLFVISRDHTISHEGEKKPSATHSFDAGAAWFSLAMQAHLLGYHAHGMGGIFKDRIVEKLDIPDGFKVEAGVAIGTLTDKSILPDDLAEREVPSKRVPLADVAFEGRFTGKAD | not failed
MTLSAIQPNDMALYHYDSCPFCAKTRHAINELDLNIELRNIQKNHQHRIELQQGGNKTQVPCLRIGQSNGKAQWLYESGDIINFLRNRK | failed
MSTIDFRPYGGFIFDMDGTLIDTMPAHLAAWQATADRFDFPFCQEWLHSLGGMPSFKIVAELNRHYGLSLDPQTVSKFKMETFAAMELQGDVIQCTGIVLEEYLGQKKIAVGTGSQRESAMRLLSHAGLIDRLDAVVTASDVENHKPCPDTFLLAADRLGIDAQNCLVFEDTELGKRAAHSAGMDCVMVEGNNLVFYPKR | not failed
MEIIIYIFVSIAIISLQAITPFVIRKSECFGVNVGERANRNAELTQLKKQYVGQVILWTSFVAIIGIALIQGFHSSENTQAGIFIASMFSQLIVSFIIYYRFHHTTLQWKRDKIEAGEISTNSIIMVDTSFHRRKMVISYTWFIVPLLIFIITLAITVVFYSTAPVDFPIHFDMSGTVTDTVAKSPRVVLLLPMMQLGMIALFIFINFVIARSKQTVENENPTDSLKRNMLFRQISSKAMLIMCTIMVIDFLIMQVVTLLALPAEWMMVTMIISVVLILFGTVLLAVKVGQGGSRLKFADQPDGVNKPIRDDDSFWKAGVIYFNRNDPALFVEKRFGIGWTINTARPVAWLSFVIIIAVIILISILF | failed
MAKKVVGEIKLQIPAGKANPSPPVGPALGQRGVNIMEFCKAFNERTKDMGSFNIPVIITVYQDKSFTFITKKPPVTDLIKKASGVEKGSDNPLKNKIAKLTHKQVEEIAQLKMEDLNTSTMEAAKKIVMGSARSMGVEVVD | failed
AIASERLYYFVIVGRDDRVLYDLLYPASLSELDWRTSSELSSPAERGDFEPHHFIPSIQVLLQFVAYSALDHIEEKYWLTSARSLKHIFRFRDWSASVQLTPNAATRFVLVHGASDDASRNVRAFLHAVYEAYVPHVVCNPFQEEDAPITSKRFHEVAKNLAKRYFSG | failed
MYDNENPNGFGSNPEENNDDNISGTENNNFEEVNSQQVSQDAVNSSEQNTEQTAEQESSVYRQSYVNDEHHNADDVSGNGTYYSQGSNNSSNDSTQNGSYYNNTQDGSYYNSNSNNSQNNGYYYSTNDSQTNNGYNYNSNNNNNGNGKKKKKKRTLIAVVAVCVVLLAGTIGISAAYFSKNKDSLTNVLEDGTLSNNNNNSNSNNDNSSDSGNYESIGSTNTQNDANSSSTSGVTVTDVSSVVSSAMPSVVAITSKTLVESRNDYSQDIWEYYFGGGNSGNNKSNSYEEDAAGSGIIVDQTSTELLIVTNNHVVEGADSLKIQFAGTESKDSVDGYIKGTDSTKDVAVVAVKLKDIPSDVLKNIKKATLGDSDKVNVGEGVIAIGNALGYGQSVTTGIISAKDRKVQLENQTMTLLQTDAAINGGNSGGALLNASGEVIGINVAKYSSSGSSSNASVEGMGFAIPISSVKDIISDLETKETRTKVSEDERGYLGISGFDVDEQTSQAYSIPQGIQVQSVVKGGPAENAGIAASDVITKFDGQDVSSMASLQSMLEYYKKGEQVKVTIEYRDGREYKTKDVTVTLGDKSVIETTQNAAN | failed
GPLQVSNARLLFPISMPEDEGVVRLVVNNTDESDLQVAVVSLPSFVSLDDRAFRLQAREPRELNLSLAVPRNMPPGMKDEPLVLEVTSPETGKKAVDSVMVSLPLVDNFPALTAAQTGVMELSTYLDMGQLDGETTKAAIEIRNVGAGPLRLHSVTTRNPALTAVPDRTEIKPGGSTLLRIAVDPQVMKAEGWQSIAADISIICNDPQAPLRRIKVKAEL | not failed
MEDWWFSWLSRTNLEPSLIHEYGLSFSQNELEHEDISYFDHEFLQSMGISIAKHRLEILKLARRDRKNSPPLTSRSISRVVTAIKKTRKCLSDHVRAWIRREEESASSRALVLVPKKTSNGIGKWRGGFLKRNKRSVMPSNGNGGLEKQERLLLTNGTPCRIDSFSSPMVFDYSFKDEKLYAQDTYFEDIKWDSMFQNLKPT | failed
MPIQRREFIAAIGTGALATTAGCAQSGEGSGQTEAETEAESGGGGQPGVAGETLTLTTTTSTYDTGLLDEIHPDFEDMYGVSVDAVAQGTGAALESARNGDSDIVMVHARGLEDDFMRNGYGINRRDLMFNDFVIVGPEDDPAGIQGMGSATEALTTIAESESQFVSRGDNSGTHTKELNLWEAAGTEPGGNWYQETGTGMGEALNIANQQGAYTLSDRGTYISQRSEIDLVILVQGPIEDGPEILANPYGIMAVNPGVHDNANYDLAMAYIGWITSPGTQDAISNYQVNGEQLFFPEAVSEDPNFQQYVPEGWSSDAGE | failed
SLNDLPGAGRMDVLCRCTSQALFISHGIRRDVEVYLLLLGPPSPPKSILIKGDEVRRMSPDERNVAGHIKKALAVECGKSWKKVHSGVYVSRKGLEELIEELSEKYSIIYLKEDGVDISNAQLPPNPLFVIGDHEGLTEEQEKVVERYAALKLSLSPLSLLAEQCVVIAHHHLDRLQF | not failed
MLRSSAAAGKGGRILAAKQVNPTRMELTRLKKKRITAIRGHKLLKDKRDELMRQYLDLVRENMEVRKKVEAGIRSANKNFVIAKAGMSEAALNTALMAPKQEVNLEAGEKNVMSVDIPTFQYKTRTADENDIYSYGFAFTSGDLDGAVKSLADVLPDMIRLAECEKACQLMAAEIEKTRRRVNALEHVIIPETEQSIKYITMKLDENERSTQIRLMKVKDMMLEETHHYSEK | failed
MKTLDFRRAGAHIALVVLFAVCPVAFADENDEVAKLYQQGNLDKALEQANAYLALKPKDPQMRFHKGLILTEQQKIPDAIKVFSSLSEDYPNLPEPYNNLAVLYASQGLYEKARGALEAAIRTHPSYSIAHENLGDIYAKLASEAYGKALQLDQGNAAAQTKLAMIKDLFIGKSGAIKTASAATAPAPPASAAPRSPAATTPSPPRSAAPATPPASVHPAPGKAPQKSAEKKTEKAEKSAPGKIAAVETHSPEKKTDVPDESDEIIKTVNAWARAWSDKNVTAYFAFYAADFQTPRGVKRTTWEKTRRDRIIKPKAIQVEITHPKVTLINPARARVSFRQLYHSDAFKHDSSKTLEMVKTDGKWQIRQERSAK | failed
PAAEAAPMSLAIHSTTGTRYDLAVPPDETVEGLRKRLSQRLKVPKERLALLHKDTRLSSGKLQEFGVGDGSKLTLVPTVEAGLMSQASRPEQSVMQ | failed
MKFKTIIKASYSIIFLSFQKVLHWEHIKFTAFKNLLSVSTKILIDKSSSVKFAGKICTESNVELKALNGGKLFIAENVFINSNSIVVALDNIHIGSNTLIGPGVLIFDHDHDFEKDKNSGTKNGRHFVTKPIRIESDVWIGGNSVILKGVTIGKGAVIAAGSIVLKDVEPYCLYAGNPAKKIRSY | failed
MRICLFLCLCLCMASPALAQVAVFPALSGKTDAQTLVVYSSLDEPLATPMIEGFQKANPDIAVHYEDMLTGEIYDRIVKETDAGKKTADFAFSSAMDLQVKLSNDGYAQRSDLAMSARWPAWANWRNTAYALTFEPAVFVYHKPSFTTEKPPATRAEFVDYLERHAKEVHGRIATYDIERSGVGFLFMSRDQEQFGDIWSVIKAMGAAGVKVYSTSSAILERVSDGRFVLGYNILGSYAADWASRHPDVGIVLPKDYTVVMSRIGLVPEAAANPELGRRYLEFFMSKEGQTIMARQLQIPAVSPEVAGENTANTMQAIHGAQLRPVPVSPGLMVYLDQVKRSRLIERWNEALRSQ | failed
MPPPAMLAFDDGLARKSNDNEWQGFRVFPGENTNPNPNINFLVKKAILQNEKSITPLFSRSSARDDSFRIVLPPALPPPRDSTVPLPMLPEPMRVRKKLSHQESVIFMSKSRFAEKILYKEEDFKCNAFCLSLPGFGKNKLIRSSSKRQNSMEKKMIRASSFTGSTVSVRASLEKFECGSWASTTALIQDNGRLFFDFPVEMTKCNSRGGNGGRDVQEPVTSGFLFDRETETLALRSVLKTRSTRDHRRSAESSPQRRVRFSTSSSSASVSCPTSPRTCITPRLRKARDDFNTFLTAQNA | failed
MRVISGEYGGRRLKALDGDNTRPTTDKVKESIFNMIGPYFDGGMALDLYSGSGGLAIEAVSRGMDKSICIEKNFAALKVIKENIAITKEPEKFEVRKMDANRALEQFYEEKLQFDLVLLDPPYAKQEIVSQLEKMLERQLLTNEAVIVCETDKTVKLPETIGTLKKTRETVYGITQVTIYRQEA | not failed
MTDIFLEGGRALIGTELVETSLSVAGTDIARVDAARGRARLAIDARNLLVLPGIVDLHGDAFERQMMPRAGVDFPIDVALADSDRQAISNGITTVFHATTCSWEPGLRSADNARGLMEAIERQRPQFAADTRFHLRHETYNLDAEAEISRWLAEGRVDLFAFNDHMDGTVADMAKPRKRNRMVERTGLSSEDFDGLVDRVISRAADVPASVSRLAASARAADVRMLSHDDATPAMRREFRELGADIAEFPINEETARAAASHGDAIVYGAPNVVRGGSHTGWTRASDMIAKGLCSVLASDYYYPAQLLAAFRLAADGVLPLTEAWSLVSAEPARAAGLADRGILAEGRRADILLVDDTVPLRPRLVAVISGGKLVHLTDATRLLSAAAAPREAVVAA | failed
MLEKLLSAIKQKVSNYFLGVLPKSYSMSEENNILGLYDEHFLLTKNENLVGILRLEGVSYTHLSTEQLQDLFTERQMALDSLEKVVARLVVKRRKIDHQQNIQSDSQYLQAILNQFENKEVYENQYFLVLESTHSLHGVLEHKKKSLMHANRENFKDILSYKAHFLQETLKSLEIQLKNYAPKLLSSKEVLNFYAEYINGFDLPLKPLVGGYLSDSYIASSITFEKDYFIQESFNQKTYNRLIGIKAYESERITSIAIGALLYQETPLDIIFSIEPMSVHKTLSFLKERAKFSMSNLVKNELLEYQELVKTKRLSMQKFALNILIKAPSLENLDAQTSLVLGLLFKENLVGVIETFGLKGGYFSFFPERIHLNHRLRFLTSKALACLMVFERQNLGFKANSWGNSPLSVFKNLDYSPFLFNFHNQEVSHKNAKEIARVNGHTLIIGATGSGKSTLISFLMMSALKYQNMRLLAFDRMQGLYSFTKFFKGHYHDGQSFSINPFCLEPNLQNLEFLQSFFLSMFDLAPSRDKEALEDMNAISSAIKSLYETLYPKAFSLLDFKETLKRTSSNQLGLSLEPYLNNPLFNALNDAFNSNAFLNVINLDTITQNPKDLGLLAYYLFYKILEESRKNDSGFLVFLDEFKSYVENDLLNTKINALITQARKANGVVVLALQDIYQLSGVKNAHSFLSNMGTLILYPQKNARELKHNFNVPLSETEISFLENTPLYARQVLVKNLGNGSSNMIDVSLESLGRYLKIFNSDSSHVSKVKALQKDYPTEWREKLLRSLEHHHHHH | failed
